Conditions: Bacillus amyloliquefaciens, 25 °C, Urea, NMR, NaCl 1 M, whole UniProt chain shown

B1: Ribonuclease wild type, P00648 (protein)
chain: MMKMEGIALKKRLSWISVCLLVLVSAAGMLFSTAAKTETSSHKAHTEAQVINTFDGVADYLQTYHKLPDNYITKSEAQALGWVASKGNLADVAPGKSIGGDIFSNREGKLPGKSGRTWREADINYTSGFRNSDRILYSSDWLIYKTTDHYQTFTKIR
- unfolding free energy (pH 4.4, Sodium acetate 30 mM): 34 kJ/mol
- unfolding free energy (pH 8.9, Tris 30 mM): 33.7 kJ/mol

Reference: FireProtDB (doi:10.1021/bi00123a006)
